± gives the standard deviation of the averaged measurements.
Experiment: total protein half-life in vivo (active degradation + dilution); higher = more stable protein
[1] = E. coli NCM3722 delta-lon, growth: N-lim chemostat, doubling time 6 h
[2] = E. coli NCM3722 delta-smpB, growth: N-lim chemostat, doubling time 6 h
[3] = wild type E. coli NCM3722, growth: C-lim chemostat, doubling time 3 h
[4] = wild type E. coli NCM3722, growth: C-lim chemostat, doubling time 12 h
[5] = wild type E. coli NCM3722, growth: N-lim chemostat, doubling time 6 h
[6] = wild type E. coli NCM3722, growth: N-lim chemostat, doubling time 12 h
[7] = wild type E. coli NCM3722, growth: P-lim chemostat, doubling time 12 h
[8] = E. coli NCM3722 delta-clpP delta-lon delta-hslV, growth: N-lim chemostat, doubling time 6 h
[9] = E. coli NCM3722 delta-clpP, growth: N-lim chemostat, doubling time 6 h
[10] = E. coli NCM3722 delta-hslV, growth: N-lim chemostat, doubling time 6 h
[11] = wild type E. coli NCM3722, growth: C-lim chemostat, doubling time 6 h
[12] = wild type E. coli NCM3722, growth: P-lim chemostat, doubling time 6 h

| Sequence | total protein half-life in vivo [1] | total protein half-life in vivo [2] | total protein half-life in vivo [3] | total protein half-life in vivo [4] | total protein half-life in vivo [5] | total protein half-life in vivo [6] | total protein half-life in vivo [7] | total protein half-life in vivo [8] | total protein half-life in vivo [9] | total protein half-life in vivo [10] | total protein half-life in vivo [11] | total protein half-life in vivo [12] |
| --- | --- | --- | --- | --- | --- | --- | --- | --- | --- | --- | --- | --- |
| MSFSVDVLANIAIELQRGIGHQDRFQRLITTLRQVLECDASALLRYDSRQFIPLAIDGLAKDVLGRRFALEGHPRLEAIARAGDVVRFPADSELPDPYDGLIPGQESLKVHACVGLPLFAGQNLIGALTLDGMQPDQFDVFSDEELRLIAALAAGALSNALLIEQLESQNMLPGDATPFEAVKQTQMIGLSPGMTQLKKEIEIVAASDLNVLISGETGTGKELVAKAIHEASPRAVNPLVYLNCAALPESVAESELFGHVKGAFTGAISNRSGKFEMADNGTLFLDEIGELSLALQAKLLRVLQYGDIQRVGDDRCLRVDVRVLAATNRDLREEVLAGRFRADLFHRLSVFPLSVPPLRERGDDVILLAGYFCEQCRLRQGLSRVVLSAGARNLLQHYSFPGNVRELEHAIHRAVVLARATRSGDEVILEAQHFAFPEVTLPTPEVAAVPVVKQNLREATEAFQRETIRQALAQNHHNWAACARMLETDVANLHRLAKRLGLKD | 4.32 h | 3.19 ± 0.46 h | 2.33 h | 7.42 ± 0.3 h | 3.76 h | 5.2 ± 0.5 h | 7.35 ± 0.38 h | – | – | – | – | – |
| MANSSSRYSVLTAAHWGPMLVETDGETVFSSRGALATGMENSLQSAVRDQVHSNTRVRFPMVRKGFLASPENPQGIRGQDEFVRVSWDEALDLIHQQHKRIREAYGPASIFAGSYGWRSNGVLHKASTLLQRYMALAGGYTGHLGDYSTGAAQAIMPYVVGGSEVYQQQTSWPLVLEHSDVVVLWSANPLNTLKIAWNASDEQGLSYFSALRDSGKKLICIDPMRSETVDFFGDKMEWVAPHMGTDVALMLGIAHTLVENGWHDEAFLARCTTGYAVFASYLLGESDGIAKTAEWAAEICGVGAAKIRELAAIFHQNTTMLMAGWGMQRQQFGEQKHWMIVTLAAMLGQIGTPGGGFGLSYHFANGGNPTRRSAVLSSMQGSLPGGCDAVDKIPVARIVEALENPGGAYQHNGMNRHFPDIRFIWWAGGANFTHHQDTNRLIRAWQKPELVVISECFWTAAAKHADIVLPATTSFERNDLTMTGDYSNQHLVPMKQVVPPRYEARNDFDVFAELSERWEKGGYARFTEGKSELQWLETFYNVARQRGASQQVELPPFAEFWQANQLIEMPENPDSERFIRFADFCRDPLAHPLKTASGKIEIFSQRIADYGYPDCPGHPMWLEPDEWQGNAEPEQLQVLSAHPAHRLHSQLNYSSLRELYAVANREPVTIHPDDAQERGIQDGDTVRLWNARGQILAGAVISEGIKPGVICIHEGAWPDLDLTADGICKNGAVNVLTKDLPSSRLGNGCAGNTALAWLEKYNGPELTLTAFEPPASS | 4.25 ± 0.41 h | 3.293 ± 0.026 h | 2.4 ± 0.26 h | 7.73 ± 0.2 h | 3.56 ± 0.24 h | 5.57 ± 0.67 h | 6.319 ± 0.0081 h | 4.73 ± 0.25 h | 3.43 ± 0.21 h | 3.62 ± 0.17 h | 4.57 ± 0.6 h | 3.55 ± 0.4 h |
| MDEYSPKRHDIAQLKFLCETLYHDCLANLEESNHGWVNDPTSAINLQLNELIEHIATFALNYKIKYNEDNKLIEQIDEYLDDTFMLFSSYGINMQDLQKWRKSGNRLFRCFVNATKENPASLSC [P0AAR0] | – | – | – | – | – | – | – | 5.61 ± 0.1 h | 7.07 h | – | – | – |
| MSSTNIEQVMPVKLAQALANPLFPALDSALRSGRHIGLDELDNHAFLMDFQEYLEEFYARYNVELIRAPEGFFYLRPRSTTLIPRSVLSELDMMVGKILCYLYLSPERLANEGIFTQQELYDELLTLADEAKLLKLVNNRSTGSDVDRQKLQEKVRSSLNRLRRLGMVWFMGHDSSKFRITESVFRFGADVRAGDDPREAQRRLIRDGEAMPIENHLQLNDETEENQPDSGEEE | 6.21 ± 0.7 h | 5.67 ± 0.27 h | 2.98 ± 0.069 h | 11.1 ± 0.5 h | 5.85 ± 0.31 h | 9.43 ± 0.28 h | 10.7 ± 0.54 h | 6.36 ± 0.27 h | 6.18 ± 0.4 h | – | 5.85 ± 0.17 h | 5.716 ± 0.029 h |
| MGNNLLSAKATLPVYDLNNLAPRIVHLGFGAFHRAHQGVYADILATEHFSDWGYYEVNLIGGEQQIADLQQQDNLYTVAEMSADVWTARVVGVVKKALHVQIDGLETVLAAMCEPQIAIVSLTITEKGYFHSPATGQLMLDHPMVAADVQNPHQPKTATGVIVEALARRKAAGLPAFTVMSCDNMPENGHVMRDVVTSYAQAVDVKLAQWIEDNVTFPSTMVDRIVPAVTEDTLAKIEQLTGVRDPAGVACEPFRQWVIEDNFVAGRPEWEKAGAELVSDVLPYEEMKLRMLNGSHSFLAYLGYLAGYQHINDCMEDEHYRYAAYGLMLQEQAPTLKVQGVDLQDYANRLIARYSNPALRHRTWQIAMDGSQKLPQRMLDSVRWHLAHDSKFDLLALGVAGWMRYVGGVDEQGNPIEISDPLLPVIQKAVQSSAEGKARVQSLLAIKAIFGDDLPDNSLFTARVTETYLSLLAHGAKATVAKYSVK | – | 2.77 ± 0.18 h | 1.95 ± 0.0085 h | 6.21 ± 3.1 h | 3.63 ± 0.19 h | 5.47 ± 0.58 h | 7.36 ± 0.28 h | 5.14 ± 0.34 h | 3.3 ± 0.17 h | 3.4445 ± 0.0012 h | 4.22 h | 3.61 ± 0.7 h |
| MFPFRRNVLAFAALLALSSPVLAGKLAIVIDDFGYRPHNENQVLAMPSAISVAVLPDSPHAREMATKAHNSGHEVLIHLPMAPLSKQPLEKNTLRPEMSSDEIERIIRSAVNNVPYAVGINNHMGSKMTSNLFGMQKVMQALERYNLYFLDSVTIGNTQAMRAAQGTGVKVIKRKVFLDDSQNEADIRVQFNRAIDLARRNGSTIAIGHPHPATVRVLQQMVYNLPPDITLVKASSLLNEPQVDTSTPPKNAVPDAPRNPFRGVKLCKPKKPIEPVYANRFFEVLSESISQSTLIVYFQHQWQGWGKQPEAAKFNASAN | – | 4.79 h | 3.38 h | 11.2 ± 1.3 h | 6.68 ± 0.97 h | 9.34 h | 8.02 h | 5.42 ± 0.15 h | 6.23 h | 6.09 ± 0.91 h | – | – |
| MSKEHTTEHLRAELKSLSDTLEEVLSSSGEKSKEELSKIRSKAEQALKQSRYRLGETGDAIAKQTRVAAARADEYVRENPWTGVGIGAAIGVVLGVLLSRR | 6.206 ± 0.014 h | 4.81 ± 0.094 h | 2.81 ± 0.54 h | 9.35 ± 1.2 h | 5.47 ± 0.066 h | 9.88 ± 0.33 h | 10.7 ± 1.2 h | 5.56 ± 0.57 h | 6.08 ± 0.86 h | 5.45 ± 0.11 h | 5.64 ± 0.14 h | 5.55 ± 0.1 h |

Reference: the supplement of paper PMC11246515
